These results are taken from patent US20190328837A1 (Stanford University, published 2019).

In assay [1] the target is T1, wild-type CNTFR-HIS (human, UniProt P26992 23-342).
T1 construct: also called wtCNTFR-HIS; HIS tagged CNTFR; not shown: HIS tag
T1 sequence: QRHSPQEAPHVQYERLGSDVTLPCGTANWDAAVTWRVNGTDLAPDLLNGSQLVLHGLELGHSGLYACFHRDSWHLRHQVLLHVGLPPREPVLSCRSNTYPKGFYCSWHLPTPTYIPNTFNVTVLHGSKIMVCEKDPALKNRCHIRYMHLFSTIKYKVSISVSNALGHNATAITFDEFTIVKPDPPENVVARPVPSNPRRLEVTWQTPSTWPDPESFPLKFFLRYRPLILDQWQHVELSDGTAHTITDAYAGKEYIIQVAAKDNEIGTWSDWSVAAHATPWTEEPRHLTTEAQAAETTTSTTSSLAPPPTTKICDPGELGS
The assay is described as follows: flow cytometry, yeast-displayed CLCF1 construct, soluble CNTFR-HIS titrated, apparent Kd from a four-parameter fit. As to the method:
(§1) Using equilibrium binding conditions and screened by flow cytometric sorting (FACS), high throughput screening of the CLCF1 library using wtCNTFR-HIS was performed to enrich variants showing increased CLCF1 binding. Expression signal was used to normalize CNTFR binding to distinguish high expressers from high affinity binders. Screening stringency was increased throughout sorting by decreasing the concentration of wtCNTFR-HIS incubated with the library. […] Thus a variant containing the three mutations (named FRR-CLCF1) was chosen for further characterization (FIG. 7).
(§2) Yeast displaying CLCF1 constructs were incubated with varying concentrations of CNTFR for 12 h at room temperature to reach equilibrium binding. This was followed by washing with BPBS and resuspension in PBSA with 1:500 ratio of chicken anti-c-Myc (Invitrogen) for 30 min at 4 C. Yeast were then washed and pelleted, and secondary labeling was performed on ice for 30 min using PBSA with 1:100 dilution of goat anti-chicken PE (Santa Cruz) and mouse anti-HIS Hilyte Fluor 488 (Anaspec). Then samples were washed and analyzed by flow cytometry using Accuri (BD Biosciences). Samples were analyzed on BD Bioscience software, and data were analyzed using FlowJo software. Kd values were determined by fitting to a four-parameter sigmoidal curve. Error bars represent the standard deviation of triplicate experiments.

In assay [2] the target is T1, wild-type CNTFR-HIS. The assay is described as follows: flow cytometry, yeast-displayed CLCF1 construct, soluble CNTFR-HIS titrated, anti-HIS Hilyte Fluor 488 detection. As to the method:
as §1, §2

Assay [3] has as its target T2, wild-type CNTFR-Fc (human, UniProt P26992 23-342).
T2 construct: also called wtCNTFR-Fc; not shown: Fc domain; captured with anti-mouse Fc antibody
T2 sequence: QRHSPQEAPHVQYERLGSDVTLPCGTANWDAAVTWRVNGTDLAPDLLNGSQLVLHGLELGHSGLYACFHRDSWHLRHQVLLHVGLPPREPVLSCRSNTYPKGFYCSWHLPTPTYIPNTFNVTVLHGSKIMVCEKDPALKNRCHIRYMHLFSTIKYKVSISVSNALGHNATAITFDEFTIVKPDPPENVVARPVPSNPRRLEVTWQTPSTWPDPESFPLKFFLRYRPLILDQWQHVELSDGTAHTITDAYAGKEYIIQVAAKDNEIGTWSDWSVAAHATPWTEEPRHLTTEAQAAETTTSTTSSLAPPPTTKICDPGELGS
The assay is described as follows: cell-free ELISA, HIS-tagged soluble CLCF1 titrated against 2 nM CNTFR-Fc. The method, then:
(§3) 96-well plates were coated with 10 μg/mL of anti-HIS antibody overnight and blocked with 5% milk for 1 h. The plates were then washed twice with BPBS. Different concentrations of soluble constructs of HIS-tagged CLCF1 variants were incubated with 2 nM CNTFR-Fc in BPBS for 12 h at room temperature. The mixture was then added to 96-well plates coated with anti-HIS antibody for 1 h followed by washing with BPBS twice. Subsequently, the wells were incubated with 1:1000 diluted HRP conjugated anti-mouse antibody for 1 h at room temperature then washed four times with PBS. 1-Step Ultra TMB ELISA (Thermo Fisher Scientific) was used for the readout detected using a plate reader (Tecan).

Assay [4] has as its target T2, wild-type CNTFR-Fc. The assay is described as follows: cell-free ELISA, HIS-tagged soluble CLCF1 titrated against 2 nM CNTFR-Fc, anti-HIS capture, HRP anti-mouse detection. As to the method: as §3
In assay [5] the target is T2, wild-type CNTFR-Fc. The assay is described as follows: cell-free ELISA: HIS-tagged CLCF1 constructs with 2 nM CNTFR-Fc, captured by anti-HIS, detected by anti-mouse HRP; all six mutations combined (sfCLCF1).
Excerpt: (§4) This was subsequently confirmed using a cell-free ELISA method. […] Unexpectedly, Y22C, W169L, and K180R decreased binding for gp130 with the combined mutations leading to the lowest binding while the mutations led to increased LIFR binding through increased CNTFR binding (FIG. 18). Because reduced binding interaction with beta receptors is desirable for antagonizing activation of CNTFR-CLCF1 mediated pathways, the clone with all six mutations, which was named sfCLCF1 (shuffled CLCF1) was selected for further studies.
as §3

The target in assay [6] is T2, wild-type CNTFR-Fc. The assay is described as follows: sandwich ELISA, soluble CLCF1 titrated against 2 nM CNTFR-Fc, anti-mouse-Fc capture, anti-CLCF1 detection. The method, then: (§5) The CLCF1 variants isolated from screening were cloned into the pET28b bacterial expression plasmid and expressed and purified. […] A sandwich ELISA was performed using an anti-mouse Fc antibody as a capturing agent for wtCNTFR-Fc, followed by an anti-CLCF1 antibody as a detection agent for the bound complex. […] ELISA was also used to measure binding interactions with the gp130 and LIFR beta receptors.
(§6) To measure the solution-phase binding interaction between the CLCF1 constructs and CNTFR, different concentrations of soluble, recombinant CLCF1 variants and wtCLCF1 were incubated with 2 nM CNTFR-Fc in BPBS for 12 h at room temperature. The mixture was then added to 96-well plates coated with anti-mouse-Fc antibody for 1 h followed by washing with BPBS twice. Subsequently, the wells were incubated with 1:1000 diluted anti-CLCF1 rabbit antibody for 2 h at room temperature then washed four times with BPBS. The wells were incubated with a 1:1000 diluted HRP conjugated anti-rabbit antibody for 2 h at room temperature, and washed four times with BPBS. 1-Step Ultra TMB ELISA was used for the readout, which was measured using a plate reader (Tecan).

In assay [7] the target is T2, wild-type CNTFR-Fc. The assay is described as follows: sandwich ELISA, soluble CLCF1 titrated against 2 nM CNTFR-Fc, apparent Kd. As to the method:
as §5, §6

In assay [8] the target is T2, wild-type CNTFR-Fc. The assay is described as follows: sandwich ELISA: soluble CLCF1 incubated with CNTFR-Fc, captured by anti-mouse Fc, detected by anti-CLCF1; sandwich ELISA, anti-mouse Fc capture, anti-CLCF1 detection. The method, then:
as §5, §6

Assay [9] deals with T2, wild-type CNTFR-Fc. The assay is described as follows: cell-free ELISA: HIS-tagged CLCF1 constructs with 2 nM CNTFR-Fc, captured by anti-HIS, detected by anti-mouse HRP; FRR-CLCF1 parent, no added mutation. As to the method: as §3
The target of assay [10] is T2, wild-type CNTFR-Fc. The assay is described as follows: cell-free ELISA: HIS-tagged CLCF1 constructs with 2 nM CNTFR-Fc, captured by anti-HIS, detected by anti-mouse HRP; FRR-CLCF1 plus K180R.
Excerpt: as §4, §3

The target in assay [11] is T2, wild-type CNTFR-Fc. The assay is described as follows: assay not given; the FRR-CLCF1 and sfCLCF1 values in it equal those of FIG. 17 B (cell-free ELISA with 2 nM CNTFR-Fc).
The target in assay [12] is T2, wild-type CNTFR-Fc. The assay is described as follows: cell-free ELISA: HIS-tagged CLCF1 constructs with 2 nM CNTFR-Fc, captured by anti-HIS, detected by anti-mouse HRP; FRR-CLCF1 plus Y22C. As to the method:
as §3

Assay [13] concerns the target T2, wild-type CNTFR-Fc. The assay is described as follows: cell-free ELISA: HIS-tagged CLCF1 constructs with 2 nM CNTFR-Fc, captured by anti-HIS, detected by anti-mouse HRP; FRR-CLCF1 plus W169L. As to the method: as §3

B1: v2 (ligand)
CLCF1 variant displayed on yeast as Aga2p fusion with c-myc tag: LNRTGDPGPGPSIQKTYDLTRYLEHQLRSLAGTYLNYLGPPFNEPDFNPPRLGAETLPRATVDLEVWRSLNDKLRLTQNYEAYSHFLCYLRGLNRRAATAELRRSLAHFCTSLQGLLGSIAGVMAALGYPLPQPLPGTEPTWTPGPAHSDFLQKMDDFWLLKELQTWLWRSAKDFNRLKKKMQPPAAAVTLHLGAHGF
As for B1, the Kd in assay [1] amounted to 3.1 nM. Besides, in [2], the “EC50 (read off the curve)” value is ~4 nM.

B2: v4 (ligand)
soluble CLCF1 variant: LNRTGDPGPGPSIQKTYDLTRYLEHQLRSLAGTYLNYLGPPFNEPDFNPPRLGAETLPRATVDLEVWRSLNDKLRLTQNYEAYSHFLCYLRGLNRRAATAELRRSLAHFCTSLQGLLGSIAGVMAALGYPLPQPLPGTEPTWTPGPARSDFLQKMDDFWLLKELQTWLLRSAKDFNRLKRKMQPPAAAVTLHLGAHGF
notes: the text prints no Kd for it
As to B2, in [3], the Kd stood at 0.2 nM. Further, in assay [4], the “EC50 (read off the curve)” value was ~0.2 nM.

B3: recombinant soluble sfCLCF1 (shuffled CLCF1; Y22C, L86F, Q96R, H148R, W169L, K180R) (ligand)
chain: LNRTGDPGPGPSIQKTYDLTRCLEHQLRSLAGTYLNYLGPPFNEPDFNPPRLGAETLPRATVDLEVWRSLNDKLRLTQNYEAYSHFLCYLRGLNRRAATAELRRSLAHFCTSLQGLLGSIAGVMAALGYPLPQPLPGTEPTWTPGPARSDFLQKMDDFWLLKELQTWLLRSAKDFNRLKRKMQPPAAAVTLHLGAHGF
notes: HIS-tagged in the cell-free assay; also called the clone with all 6 mutations; a variant with all of the mutations combined
In the case of B3, the “EC50 (read off the curve)” value in assay [4] was ~0.2 nM. In addition, the Kd in assay [5] stood at 0.115 nM.

B4: recombinant soluble FRR-CLCF1 (L86F, Q96R, H148R) (ligand)
chain: LNRTGDPGPGPSIQKTYDLTRYLEHQLRSLAGTYLNYLGPPFNEPDFNPPRLGAETLPRATVDLEVWRSLNDKLRLTQNYEAYSHFLCYLRGLNRRAATAELRRSLAHFCTSLQGLLGSIAGVMAALGYPLPQPLPGTEPTWTPGPARSDFLQKMDDFWLLKELQTWLWRSAKDFNRLKKKMQPPAAAVTLHLGAHGF
notes: Expressed in E. coli from pET28b
As to B4, the “EC50 (read off the curve)” value in [6] and in [4] was ~1 nM throughout. Besides, the Kd is 0.86 nM in assay [7], ~0.83 nM in [8] and 0.869 nM in assay [9].

B5: recombinant soluble FRR-CLCF1 with K180R (ligand)
chain: LNRTGDPGPGPSIQKTYDLTRYLEHQLRSLAGTYLNYLGPPFNEPDFNPPRLGAETLPRATVDLEVWRSLNDKLRLTQNYEAYSHFLCYLRGLNRRAATAELRRSLAHFCTSLQGLLGSIAGVMAALGYPLPQPLPGTEPTWTPGPARSDFLQKMDDFWLLKELQTWLWRSAKDFNRLKRKMQPPAAAVTLHLGAHGF
notes: Read as FRR-CLCF1 plus K180R; HIS-tagged in the cell-free assay
As to B5, the Kd in assay [10] amounted to 0.559 nM.

B6: enCLCF1 (engineered CLCF1; Y22C, L86F, Q96R, H148R, F151A, K154A, W169L, K180R) (ligand)
chain: LNRTGDPGPGPSIQKTYDLTRCLEHQLRSLAGTYLNYLGPPFNEPDFNPPRLGAETLPRATVDLEVWRSLNDKLRLTQNYEAYSHFLCYLRGLNRRAATAELRRSLAHFCTSLQGLLGSIAGVMAALGYPLPQPLPGTEPTWTPGPARSDALQAMDDFWLLKELQTWLLRSAKDFNRLKRKMQPPAAAVTLHLGAHGF
notes: That change is not in the list of mutations; also called sfAA-CLCF1
Consider B6, for which the Kd in assay [11] is 0.12 nM.

B7: v3 (ligand)
CLCF1 variant displayed on yeast as Aga2p fusion with c-myc tag: LNRTGDPGPGPSIQKTYDLTRYLEHQLRSLAGTYLNYLGPPFNEPDFNPPRLGAETLPRATVDLEVWRSLNDKLRLTQNYEAYSHLLCYLRGLNRRAATAELRRSLAHFCTSLQGLLGSIAGVMAALGYPLPQPLPGTEPTWTPGPARSDFLQKMDDFWLLKELQTWLWRSAKDFNRLKKKMQPPAAAVTLHLGAHGF
Consider B7, for which the Kd in assay [1] was 4.2 nM. The “EC50 (read off the curve)” value in assay [2] is ~3 nM.

B8: recombinant soluble FRR-CLCF1 with Y22C (ligand)
chain: LNRTGDPGPGPSIQKTYDLTRCLEHQLRSLAGTYLNYLGPPFNEPDFNPPRLGAETLPRATVDLEVWRSLNDKLRLTQNYEAYSHFLCYLRGLNRRAATAELRRSLAHFCTSLQGLLGSIAGVMAALGYPLPQPLPGTEPTWTPGPARSDFLQKMDDFWLLKELQTWLWRSAKDFNRLKKKMQPPAAAVTLHLGAHGF
notes: HIS-tagged in the cell-free assay
B8: the Kd in assay [12] is 0.464 nM.

B9: recombinant soluble FRR-CLCF1 with W169L (ligand)
chain: LNRTGDPGPGPSIQKTYDLTRYLEHQLRSLAGTYLNYLGPPFNEPDFNPPRLGAETLPRATVDLEVWRSLNDKLRLTQNYEAYSHFLCYLRGLNRRAATAELRRSLAHFCTSLQGLLGSIAGVMAALGYPLPQPLPGTEPTWTPGPARSDFLQKMDDFWLLKELQTWLLRSAKDFNRLKKKMQPPAAAVTLHLGAHGF
notes: Read as FRR-CLCF1 plus W169L; HIS-tagged in the cell-free assay
Regarding B9, the Kd in assay [13] was found to be 0.64 nM.

B10: FRRAA-CLCF1 (ligand)
chain: LNRTGDPGPGPSIQKTYDLTRYLEHQLRSLAGTYLNYLGPPFNEPDFNPPRLGAETLPRATVDLEVWRSLNDKLRLTQNYEAYSHFLCYLRGLNRRAATAELRRSLAHFCTSLQGLLGSIAGVMAALGYPLPQPLPGTEPTWTPGPARSDALQAMDDFWLLKELQTWLWRSAKDFNRLKKKMQPPAAAVTLHLGAHGF
notes: It is read as FRR-CLCF1 plus the LIFR-reducing alanine substitutions F151A and K154A
For B10, the Kd in [11] stood at 0.93 nM.
